# Measured values published in patent publication US20260015399A1 (Boehringer Ingelheim, published 2026).
# *1 amine or outer side, *2 acyl side, *3 side chain or, on linkers, in order; H or OH if unused. Side-chain parts run from the residue outwards. The star is where a group is joined. C18 diacid = O=C(O)CCCCCCCCCCCCCCCCC(=O)*; γGlu = O=C(O)[C@H](CCC(=O)[*:2])N[*:1]; Isovaleryl = CC(C)CC(=O)*; Ahx = NCCCCCC(=O)O
# T1: human NPY2 receptor (human, UniProt P49146 1-381)
# T1 construct: whole, on cells; also called hNPY2-R; hNPY2R
# T1 sequence (looked up): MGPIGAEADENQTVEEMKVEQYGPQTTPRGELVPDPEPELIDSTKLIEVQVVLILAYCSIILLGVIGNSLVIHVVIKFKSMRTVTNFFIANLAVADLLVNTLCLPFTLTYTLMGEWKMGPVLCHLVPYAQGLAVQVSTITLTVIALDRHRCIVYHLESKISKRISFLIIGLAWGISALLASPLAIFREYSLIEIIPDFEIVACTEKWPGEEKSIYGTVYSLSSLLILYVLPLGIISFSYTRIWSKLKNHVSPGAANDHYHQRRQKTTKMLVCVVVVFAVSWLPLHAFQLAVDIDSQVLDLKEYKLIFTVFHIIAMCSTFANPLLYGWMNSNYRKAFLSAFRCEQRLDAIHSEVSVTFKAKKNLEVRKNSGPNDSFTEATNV
# T2: human NPY5 receptor (human, UniProt Q15761 1-445)
# T2 sequence (looked up): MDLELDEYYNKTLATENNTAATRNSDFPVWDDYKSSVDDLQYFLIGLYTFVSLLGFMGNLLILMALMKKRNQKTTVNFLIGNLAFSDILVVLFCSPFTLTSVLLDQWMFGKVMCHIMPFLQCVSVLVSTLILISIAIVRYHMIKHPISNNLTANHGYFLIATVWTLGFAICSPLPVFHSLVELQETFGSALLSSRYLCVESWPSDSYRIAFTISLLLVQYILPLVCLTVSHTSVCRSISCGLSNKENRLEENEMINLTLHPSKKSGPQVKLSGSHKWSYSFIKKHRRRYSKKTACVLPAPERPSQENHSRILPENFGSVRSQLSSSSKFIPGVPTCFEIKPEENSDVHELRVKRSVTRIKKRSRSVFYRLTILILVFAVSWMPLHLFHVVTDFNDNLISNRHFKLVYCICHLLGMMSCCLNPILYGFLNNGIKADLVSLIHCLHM
# B1: Compound 145 (peptide)
# peptide: Isovaleryl-APAK([Ahx-γGlu-C18 diacid])PEEDASPEELQRYYVSLRHYYNWLTRQRY-NH2
# SMILES: CC(C)CC(=O)N[C@@H](C)C(=O)N1CCC[C@H]1C(=O)N[C@@H](C)C(=O)N[C@@H](CCCCNC(=O)CCCCCNC(=O)CC[C@H](NC(=O)CCCCCCCCCCCCCCCCC(=O)O)C(=O)O)C(=O)N1CCC[C@H]1C(=O)N[C@@H](CCC(=O)O)C(=O)N[C@@H](CCC(=O)O)C(=O)N[C@@H](CC(=O)O)C(=O)N[C@@H](C)C(=O)N[C@@H](CO)C(=O)N1CCC[C@H]1C(=O)N[C@@H](CCC(=O)O)C(=O)N[C@@H](CCC(=O)O)C(=O)N[C@@H](CC(C)C)C(=O)N[C@@H](CCC(N)=O)C(=O)N[C@@H](CCCNC(=N)N)C(=O)N[C@@H](Cc1ccc(O)cc1)C(=O)N[C@@H](Cc1ccc(O)cc1)C(=O)N[C@H](C(=O)N[C@@H](CO)C(=O)N[C@@H](CC(C)C)C(=O)N[C@@H](CCCNC(=N)N)C(=O)N[C@@H](Cc1c[nH]cn1)C(=O)N[C@@H](Cc1ccc(O)cc1)C(=O)N[C@@H](Cc1ccc(O)cc1)C(=O)N[C@@H](CC(N)=O)C(=O)N[C@@H](Cc1c[nH]c2ccccc12)C(=O)N[C@@H](CC(C)C)C(=O)N[C@H](C(=O)N[C@@H](CCCNC(=N)N)C(=O)N[C@@H](CCC(N)=O)C(=O)N[C@@H](CCCNC(=N)N)C(=O)N[C@@H](Cc1ccc(O)cc1)C(N)=O)[C@@H](C)O)C(C)C
# B2: Compound 146 (peptide)
# peptide: Isovaleryl-APEK([Ahx-γGlu-C18 diacid])PEEEATPEELQRYYVSLRHYYNWLTRQRY-NH2
# SMILES: CC(C)CC(=O)N[C@@H](C)C(=O)N1CCC[C@H]1C(=O)N[C@@H](CCC(=O)O)C(=O)N[C@@H](CCCCNC(=O)CCCCCNC(=O)CC[C@H](NC(=O)CCCCCCCCCCCCCCCCC(=O)O)C(=O)O)C(=O)N1CCC[C@H]1C(=O)N[C@@H](CCC(=O)O)C(=O)N[C@@H](CCC(=O)O)C(=O)N[C@@H](CCC(=O)O)C(=O)N[C@@H](C)C(=O)N[C@H](C(=O)N1CCC[C@H]1C(=O)N[C@@H](CCC(=O)O)C(=O)N[C@@H](CCC(=O)O)C(=O)N[C@@H](CC(C)C)C(=O)N[C@@H](CCC(N)=O)C(=O)N[C@@H](CCCNC(=N)N)C(=O)N[C@@H](Cc1ccc(O)cc1)C(=O)N[C@@H](Cc1ccc(O)cc1)C(=O)N[C@H](C(=O)N[C@@H](CO)C(=O)N[C@@H](CC(C)C)C(=O)N[C@@H](CCCNC(=N)N)C(=O)N[C@@H](Cc1c[nH]cn1)C(=O)N[C@@H](Cc1ccc(O)cc1)C(=O)N[C@@H](Cc1ccc(O)cc1)C(=O)N[C@@H](CC(N)=O)C(=O)N[C@@H](Cc1c[nH]c2ccccc12)C(=O)N[C@@H](CC(C)C)C(=O)N[C@H](C(=O)N[C@@H](CCCNC(=N)N)C(=O)N[C@@H](CCC(N)=O)C(=O)N[C@@H](CCCNC(=N)N)C(=O)N[C@@H](Cc1ccc(O)cc1)C(N)=O)[C@@H](C)O)C(C)C)[C@@H](C)O
# B3: Compound 183 (peptide)
# peptide: Isovaleryl-APEK([Ahx-γGlu-C18 diacid])AEEDASPEEIQRYYVSLRHYYNWLTRQRY-NH2
# SMILES: CC[C@H](C)[C@H](NC(=O)[C@H](CCC(=O)O)NC(=O)[C@H](CCC(=O)O)NC(=O)[C@@H]1CCCN1C(=O)[C@H](CO)NC(=O)[C@H](C)NC(=O)[C@H](CC(=O)O)NC(=O)[C@H](CCC(=O)O)NC(=O)[C@H](CCC(=O)O)NC(=O)[C@H](C)NC(=O)[C@H](CCCCNC(=O)CCCCCNC(=O)CC[C@H](NC(=O)CCCCCCCCCCCCCCCCC(=O)O)C(=O)O)NC(=O)[C@H](CCC(=O)O)NC(=O)[C@@H]1CCCN1C(=O)[C@H](C)NC(=O)CC(C)C)C(=O)N[C@@H](CCC(N)=O)C(=O)N[C@@H](CCCNC(=N)N)C(=O)N[C@@H](Cc1ccc(O)cc1)C(=O)N[C@@H](Cc1ccc(O)cc1)C(=O)N[C@H](C(=O)N[C@@H](CO)C(=O)N[C@@H](CC(C)C)C(=O)N[C@@H](CCCNC(=N)N)C(=O)N[C@@H](Cc1c[nH]cn1)C(=O)N[C@@H](Cc1ccc(O)cc1)C(=O)N[C@@H](Cc1ccc(O)cc1)C(=O)N[C@@H](CC(N)=O)C(=O)N[C@@H](Cc1c[nH]c2ccccc12)C(=O)N[C@@H](CC(C)C)C(=O)N[C@H](C(=O)N[C@@H](CCCNC(=N)N)C(=O)N[C@@H](CCC(N)=O)C(=O)N[C@@H](CCCNC(=N)N)C(=O)N[C@@H](Cc1ccc(O)cc1)C(N)=O)[C@@H](C)O)C(C)C
# B4: Compound 196 (peptide)
# peptide: Isovaleryl-APEK([Ahx-γGlu-C18 diacid])PEADASPEELQRYYVSLRHYYNWLTRQRY-NH2
# SMILES: CC(C)CC(=O)N[C@@H](C)C(=O)N1CCC[C@H]1C(=O)N[C@@H](CCC(=O)O)C(=O)N[C@@H](CCCCNC(=O)CCCCCNC(=O)CC[C@H](NC(=O)CCCCCCCCCCCCCCCCC(=O)O)C(=O)O)C(=O)N1CCC[C@H]1C(=O)N[C@@H](CCC(=O)O)C(=O)N[C@@H](C)C(=O)N[C@@H](CC(=O)O)C(=O)N[C@@H](C)C(=O)N[C@@H](CO)C(=O)N1CCC[C@H]1C(=O)N[C@@H](CCC(=O)O)C(=O)N[C@@H](CCC(=O)O)C(=O)N[C@@H](CC(C)C)C(=O)N[C@@H](CCC(N)=O)C(=O)N[C@@H](CCCNC(=N)N)C(=O)N[C@@H](Cc1ccc(O)cc1)C(=O)N[C@@H](Cc1ccc(O)cc1)C(=O)N[C@H](C(=O)N[C@@H](CO)C(=O)N[C@@H](CC(C)C)C(=O)N[C@@H](CCCNC(=N)N)C(=O)N[C@@H](Cc1c[nH]cn1)C(=O)N[C@@H](Cc1ccc(O)cc1)C(=O)N[C@@H](Cc1ccc(O)cc1)C(=O)N[C@@H](CC(N)=O)C(=O)N[C@@H](Cc1c[nH]c2ccccc12)C(=O)N[C@@H](CC(C)C)C(=O)N[C@H](C(=O)N[C@@H](CCCNC(=N)N)C(=O)N[C@@H](CCC(N)=O)C(=O)N[C@@H](CCCNC(=N)N)C(=O)N[C@@H](Cc1ccc(O)cc1)C(N)=O)[C@@H](C)O)C(C)C
# B5: Compound 172 (peptide)
# peptide: Isovaleryl-APEK([Ahx-γGlu-C18 diacid])PPEDASPEEIQRYYVSLRHYYNWLTRQRY-NH2
# SMILES: CC[C@H](C)[C@H](NC(=O)[C@H](CCC(=O)O)NC(=O)[C@H](CCC(=O)O)NC(=O)[C@@H]1CCCN1C(=O)[C@H](CO)NC(=O)[C@H](C)NC(=O)[C@H](CC(=O)O)NC(=O)[C@H](CCC(=O)O)NC(=O)[C@@H]1CCCN1C(=O)[C@@H]1CCCN1C(=O)[C@H](CCCCNC(=O)CCCCCNC(=O)CC[C@H](NC(=O)CCCCCCCCCCCCCCCCC(=O)O)C(=O)O)NC(=O)[C@H](CCC(=O)O)NC(=O)[C@@H]1CCCN1C(=O)[C@H](C)NC(=O)CC(C)C)C(=O)N[C@@H](CCC(N)=O)C(=O)N[C@@H](CCCNC(=N)N)C(=O)N[C@@H](Cc1ccc(O)cc1)C(=O)N[C@@H](Cc1ccc(O)cc1)C(=O)N[C@H](C(=O)N[C@@H](CO)C(=O)N[C@@H](CC(C)C)C(=O)N[C@@H](CCCNC(=N)N)C(=O)N[C@@H](Cc1c[nH]cn1)C(=O)N[C@@H](Cc1ccc(O)cc1)C(=O)N[C@@H](Cc1ccc(O)cc1)C(=O)N[C@@H](CC(N)=O)C(=O)N[C@@H](Cc1c[nH]c2ccccc12)C(=O)N[C@@H](CC(C)C)C(=O)N[C@H](C(=O)N[C@@H](CCCNC(=N)N)C(=O)N[C@@H](CCC(N)=O)C(=O)N[C@@H](CCCNC(=N)N)C(=O)N[C@@H](Cc1ccc(O)cc1)C(N)=O)[C@@H](C)O)C(C)C
# B6: Compound 147 (peptide)
# peptide: Isovaleryl-APEK([Ahx-γGlu-C18 diacid])PEEDASPEEIQRYYVSLRHYYNWLTRQRY-NH2
# SMILES: CC[C@H](C)[C@H](NC(=O)[C@H](CCC(=O)O)NC(=O)[C@H](CCC(=O)O)NC(=O)[C@@H]1CCCN1C(=O)[C@H](CO)NC(=O)[C@H](C)NC(=O)[C@H](CC(=O)O)NC(=O)[C@H](CCC(=O)O)NC(=O)[C@H](CCC(=O)O)NC(=O)[C@@H]1CCCN1C(=O)[C@H](CCCCNC(=O)CCCCCNC(=O)CC[C@H](NC(=O)CCCCCCCCCCCCCCCCC(=O)O)C(=O)O)NC(=O)[C@H](CCC(=O)O)NC(=O)[C@@H]1CCCN1C(=O)[C@H](C)NC(=O)CC(C)C)C(=O)N[C@@H](CCC(N)=O)C(=O)N[C@@H](CCCNC(=N)N)C(=O)N[C@@H](Cc1ccc(O)cc1)C(=O)N[C@@H](Cc1ccc(O)cc1)C(=O)N[C@H](C(=O)N[C@@H](CO)C(=O)N[C@@H](CC(C)C)C(=O)N[C@@H](CCCNC(=N)N)C(=O)N[C@@H](Cc1c[nH]cn1)C(=O)N[C@@H](Cc1ccc(O)cc1)C(=O)N[C@@H](Cc1ccc(O)cc1)C(=O)N[C@@H](CC(N)=O)C(=O)N[C@@H](Cc1c[nH]c2ccccc12)C(=O)N[C@@H](CC(C)C)C(=O)N[C@H](C(=O)N[C@@H](CCCNC(=N)N)C(=O)N[C@@H](CCC(N)=O)C(=O)N[C@@H](CCCNC(=N)N)C(=O)N[C@@H](Cc1ccc(O)cc1)C(N)=O)[C@@H](C)O)C(C)C
# Biological target: T1, human NPY2 receptor
# Test: RLB: displacement of 125I-PYY(1-36) from hNPY2R membranes
row,Ki [nM],Binder
1,5.29,B1
2,8.93,B2
3,18.8,B3
4,3.57,B4
5,0.81,B5
6,5.04,B6

# Biological target: T2, human NPY5 receptor
# Test: cell-based or functional assay
row,"EC50, HTRF cAMP Gi assay [nM]",Binder
1,> 5000,B1
2,> 5000,B2
3,> 5000,B3
4,> 5000,B4
5,> 5000,B5
6,> 5000,B6

# Biological target: T1, human NPY2 receptor
# Test: cell-based or functional assay
row,"EC50, HTRF cAMP Gi assay [nM]",Binder
1,0.118,B1
2,0.13,B2
3,0.447,B3
4,0.086,B4
5,0.079,B5
6,0.146,B6
